US10202593B2, “Evolved sortases and uses thereof” (President and Fellows of Harvard College, priority 2013, dated 2019)
Where a chain is given by its changes, count along the chain named. Names and notes keep the numbering of the source. Like-named read-outs stand apart in the source and are kept apart here.

B1: 4S.6A: 5mut + N98D A104V A118S F122A K134G I182V E189V (protein)
chain: QAKPQIPKDKSKVAGYIEIPDADIKEPVYPGPATREQLDRGVSFVEENESLDDQNISISGHTAIDRPNYQFTNLGAAKKGSMVYFKVGNETRKYKMTSIRNVKPTAVEVLDEQKGKDKQLTLVTCDDYNVETGVWETRKIFVATEVK
B2: eSrtA(4S-6): round 6 consensus variant targeting LPESG (protein)
chain: B1 chain
B3: 4S.6C: 5mut + N98D A104V A118T F122A K134R I182V E189F (protein)
chain: B1 chain with S59T, G75R, V130F
B4: eSrtA(4S-4): 5mut + A104V A118T F122S I182V (protein)
chain: B1 chain with D39N, S59T, A63S, G75K, V130E

How the values were obtained:
[1] = test system: LPETG (Abz-LPETGK(Dnp)-CONH2); assay: In vitro sortase kinetics HPLC assay, LPETG substrate; assay type: biochemical; settings: substrate wt (LPETG)
Procedure: (§1) See below for details on sortase expression and purification, and on the synthesis of Abz-LPETGK(Dnp)-CONH2 (SEQ ID NO: 19). […] Reactions were initiated with the addition of enzyme and incubated at 22.5° C. for 3 to 20 minutes before quenching with 0.5 volumes of 1 M HCl. Five to ten nmol of peptide from the quenched reactions were injected onto an analytical reverse-phase Eclipse XDB-C18 HPLC column (4.6×150 mm, 5 μm, Agilent Technologies) and chromatographed using a gradient of 10 to 65% acetonitrile with 0.1% TFA in 0.1% aqueous TFA over 13 minutes. Retention times under these conditions for the Abz-LPETGK(Dnp)-CONH2 (SEQ ID NO: 19) substrate, the released GKDnp peptide, and the Abz-LPETGGG-COOH (SEQ ID NO: 20) product were 12.8, 10.4, and 9.1 min, respectively. To calculate the percent conversion, the ratio of the integrated areas of the Abz-LPETGGG-COOH (SEQ ID NO: 20) and Abz-LPETGK(Dnp)-CONH2 (SEQ ID NO: 19) peptide Abs220 peaks was compared to a standard curve generated by mixing the product and starting peptide in known ratios. To determine […] and Km, reaction rates were fit to the Michaelis-Menten equation using OriginPro 7.0 software. All kinetics values reported represent the average of at least three measurements. Percent conversion was also calculated by using the ratio of the integrated areas of the GK(Dnp)-CONH2 and Abz-LPETGK(Dnp)-CONH2 peptide Abs355 peaks were compared directly (Example 5). To determine kcat and Km, LPETG, reaction rates were fit to the Michaelis-Menten equation using Microsoft Excel using the Solver add-in. To determine Km,GGG and KH, reaction rates were fit to the modified Michaelis-Menten, for which KH is as defined when KH<<Km,GGG.
(§2) Assays to determine eSrtA, eSrtA(2A-9) and eSrtA(4S-9) specificity were performed by preparing 10 μM stocks of Abz-LXEXGK(Dnp) (SEQ ID NO: 75) peptides in 300 mM Tris pH 7.5, 150 mM NaCl, 5 mM CaCl2, 5% v/v DMSO, and 100 mM Gly-Gly-Gly-COOH (GGG). Reactions were performed by adding eSrtA(2A-9) to a final concentration of 450 nM, eSrtA(4S-9) to a final concentration of 115 nM or eSrtA to a final concentration of 47.5 nM and a final volume of 100 μL, then incubating at 22.5° C. for 15 minutes. Reactions were quenched by the addition of 0.2 volumes of 5 M HCl, then were injected onto an analytical reverse-phase Eclipse XDB-C18 HPLC column (4.6×150 mm, 5 μm, Agilent Technologies) and chromatographed using a gradient of 10 to 65% acetonitrile with 0.1% TFA in 0.1% aqueous TFA over 13 minutes. Retention times under these conditions for the Abz-LPETGK(Dnp)-CONH2 (SEQ ID NO: 19) substrate, the released GKDnp peptide, and the Abz-LPETGGG-COOH (SEQ ID NO: 20) product were 12.8, 10.4, and 9.1 min, respectively, while the remaining Abz-LXEXGK(Dnp)-CONH2 (SEQ ID NO: 74) substrates varied in retention time between 9 and 13 minutes. To calculate the percent conversion, the ratio of the integrated areas of the GK(Dnp)-CONH2 and Abz-LPETGK(Dnp)-CONH2 (SEQ ID NO: 19) peptide Abs355 peaks were compared directly. Subsequent determination of kcat/Km and KH were performed as described for in vitro SrtA characterization.
(§3) In each case, rate constants were determined by measuring enzyme velocity at eight different substrate concentrations by HPLC assay, then fit using nonlinear regression to the Michaelis-Menten equation, yielding kcat and Km. KH was calculated by measuring enzyme velocity at 1 mM target substrate and eight different GGG concentrations by HPLC assay, then fitting the resulting curves using nonlinear regression to the modified Michaelis-Menten equation.

[2] = test system: LPESG (Abz-LPESGK(Dnp)-CONH2); assay: In vitro sortase kinetics HPLC assay, LPESG substrate; assay type: biochemical; settings: for specificity (relative cat. Efficiency, fold): ratio of kcat/Km between 4S (LPESG) and wt (LPETG) substrates; for kHydrolysis (Hz): 1 mM; for Specificity: 4S (LPESG) over wt (LPETG)
Procedure: as §1, §2, §3

mouse tissues = assay: Tissue modification with GGG-Biotin (SA-568 fluorescence)
Procedure: FIG. 10 is a graph showing the relative increase in fluorescence of mouse tissues specifically labeled with GGG-Biotin (detected with SA-568) using a sortase recognizing the LPESG (SEQ ID NO: 3) sortase recognition motif.
Tissue section microarrays were purchased from the BioChain institute (Cat. Z7020001, Lot B508112) and deparaffinized by treatment with 2 changes Xylene for 9 minutes each, 1 change 1:1 Xylene:Ethanol for 3 minutes, 1 change 100% ethanol for 3 minutes, 1 change 90% ethanol for 3 minutes, 1 change 70% ethanol for 3 minutes, 1 change 70% ethanol+0.25% ammonia for 1 hour, 1 change 50% ethanol for 3 minutes, 1 change DI water for 5 minutes. Antigen retrieval was achieved by soaking in 10 mM Citrate pH 6 followed by microwave heating for 2 minutes, then let to rest for 8 minutes. Tissues were washed with 10 mg/mL freshly prepared Sodium borohydride in PBS for 30 minutes on ice, then washed twice with PBS for 3 minutes each.
Slides were blocked in 5% BSA/PBS for 1 hour at room temperature, then 0.001% (w/v) avidin in 5% BSA/PBS for 15 minutes, washed with 5% BSA/PBS, 0.001% (w/v) biotin in 5% BSA/PBS for 15 minutes, washed with 5% BSA/PBS and washed twice in TBS-BC (100 mM TBS, 500 mM NaCl, 0.5% BSA, 5 mM CaCl2) for three minutes. Slides were then treated with 20 uM Enzyme and 200 uM GGG-Biotin for 1 hour at room temperature, washed with 10 mM GGG in 5% BSA/PBS for 3 minutes, then washed twice with 5% BSA/PBS for 3 minutes. Slides were then treated with 2 mg/mL Sudan Black B in 70% EtOH for 30 minutes, washed three times with 5% BSA/PBS, incubated in 5% BSA/PBS+1:250 Streptavidin-568 for 30 minutes, washed 3 times with PBS, incubated with DAPI/PBS for 30 minutes and finally washed 3 times with PBS. Slides were dried, mounted and then visualized by confocal microscopy.
Tissue staining was performed as described previously, with biotin signal false colored in red and DAPI stain false colored in blue. In each case, total integrated biotin signal was computed for both negative control and SrtA+ samples, then background subtracted and used to calculate the total fluorescence enrichment shown in FIG. 10.

[3] = 1 mM 4S (LPESG) substrate, GGG varied
[4] = 1 mM 4S (LPESG) substrate, read-out: Km, GGG
[5] = substrate 4S (LPESG), GGG varied
[6] = substrate 4S (LPESG), read-out: Km, LxExG
[7] = Example 5 variants, read-out: Avg KM
[8] = Example 5 variants, substrate 4S (LPESG)
[9] = Example 5 variants, substrate 4S (LPESG), read-out: Avg KM
[10] = GGG varied, substrate 4S (LPESG)

| Molecule | kcat, 10 mM GGG (Hz) [1] | Km ([1]; read-out: Km, LxExG) | Khydrolysis ([2]; 1 mM 4S (LPESG) substrate) | kcat, 1 mM LxExG (Hz) [2, 3] | Km [2, 4] | specificity (relative cat. Efficiency, fold) [2] | kL/KL/KH ([2]; substrate 4S (LPESG)) | kHydrolysis (Hz) [2, 5] | kcat, 10 mM GGG (Hz) ([2]; substrate 4S (LPESG)) | Km [2, 6] | Avg kcat (Hz) ([1]; Example 5 variants) | Km [1, 7] | Avg kcat (Hz) [2, 8] | Km [2, 9] | Specificity ([2]; ratio of kcat/KM) | further results |
| --- | --- | --- | --- | --- | --- | --- | --- | --- | --- | --- | --- | --- | --- | --- | --- | --- |
| B1 | 1.102 Hz | 1290 µM | 179.3 µM | 1.931 Hz | 4950 µM | 11 fold | 5.24E+07 | 0.06696 Hz | 0.9537 Hz | 102 µM | – | – | – | – | – | increase in kcat/Km for LPESG as compared to LPETG ([2]; FIG. 2): ~5 fold; labeling of tissue with GGG-Biotin (mouse tissues; bladder tissue): specific labeling; labeling of tissue with GGG-Biotin (mouse tissues; pancreas tissue): specific labeling; labeling of tissue with GGG-Biotin (mouse tissues; prostate tissue): specific labeling; labeling of tissue with GGG-Biotin (mouse tissues; small intestine tissue): specific labeling; labeling of tissue with GGG-Biotin (mouse tissues; spleen tissue): specific labeling; labeling of tissue with GGG-Biotin (mouse tissues; testis tissue): specific labeling; labeling of tissue with GGG-Biotin (mouse tissues; uterus tissue): specific labeling |
| B2 | – | – | – | – | – | – | – | – | – | – | 0.9657 Hz | 1040 µM | 0.9425 Hz | 125 µM | 8.094 | Avg kHydro (Hz) [2, 10]: 0.01782 Hz; Avg kcat (Hz) [2, 10]: 2.004 Hz; Km ([2]; KM for GGG, substrate 4S (LPESG), read-out: Avg KM): 13100 µM; KH (KH,LPESG) ([2]; LPESG substrate): 116 ± 10 µM; Avg KH ([2]; substrate 4S (LPESG)): 116.3542 µM |
| B3 | 0.003663 Hz | 16.1 µM | 334.1 µM | 1.502 Hz | 36000 µM | 18.52 fold | 1.30E+07 | 0.01399 Hz | 0.6657 Hz | 156 µM | – | – | – | – | – | – |
| B4 | 0.09571 Hz | 339 µM | – | – | – | 1.823 fold | – | – | 0.7269 Hz | 1410 µM | 0.1073 Hz | 491 µM | 0.7574 Hz | 1560 µM | 2.224 | preference for LPESG over LPETG ([2]; ratio of kcat/KM): 2 fold |
